Experimental data: article PMC4445001 (Molecular Therapy. Methods & Clinical Development, 2015)

B1: HAdV3 fiber knob mutant V239D (nondimerized, trimeric) (domain or fragment, human adenovirus type 3 (HAdV3))
chain: ALKNNTLWTGPKPEANCIIEYGKQNPDSKLTLILVKNGGIVNGYVTLMGASDYVNTLFKNKNVSINVELYFDATGHILPDSSSLKTDLELKYKQTADFSARGFMPSTTAYPFDLPNAGTHNENYIFGQCYYKASDGALFPLEVTVMLNKRLPDSRTSYVMTFLWSLNAGLAPETTQATLITSPFTFSYIREDD

Key:
[1] = biological target: JO-4 (affinity-enhanced junction opener; self-dimerizing HAdV3-V239D fiber knob) (human adenovirus type 3 (HAdV3)) (UniProt P04501); experiment: SPR
crystal structure = biological target: the molecule itself; experiment: crystal structure

Molecule	Kd [1]	binding result (crystal structure)
Recombinant human DSG2 protein (desmoglein 2) (from UniProt Q14126 50-609) (receptor)	1.4 nM	–
B1	–	binds
